Test results reported in the Human Domainome abundance scans (Beltran et al. 2025).
± gives the uncertainty stated by the source.

B1: Membrane-associated guanylate kinase, WW and PDZ domain-containing protein 1, residues 352 to 401; numbered along this chain, Q96QZ7 (parent)
chain: TEELDSELELPAGWEKIEDPVYGIYYVDHINRKTQYENPVLEAKRKKQLE

Variants of: B1
Experiment: abundance fitness (aPCA) (normalised: wild type 0, dead -1); higher = more abundant; growth selection in yeast, the domain comes from the species named
Settings: Homo sapiens

| Variant | abundance fitness |
| --- | --- |
| H29F | -0.682 ± 0.14 |
| H29G | -0.317 ± 0.042 |
| H29K | -0.157 ± 0.071 |
| H29L | -0.156 ± 0.042 |
| H29M | -0.386 ± 0.057 |
| H29N | -0.01 ± 0.082 |
| H29P | -0.515 ± 0.057 |
| H29Q | -0.465 ± 0.086 |
| H29R | -0.217 ± 0.043 |
| H29S | -0.26 ± 0.064 |
| H29T | 0.016 ± 0.064 |
| H29V | -0.207 ± 0.038 |
| H29W | -0.439 ± 0.049 |
| I30A | -0.093 ± 0.041 |
| I30C | -0.322 ± 0.077 |
| I30D | -0.459 ± 0.083 |
| I30E | -0.079 ± 0.071 |
| I30F | -0.195 ± 0.041 |
| I30G | -0.203 ± 0.042 |
| I30K | -0.078 ± 0.067 |
| I30L | -0.082 ± 0.054 |
| I30M | -0.311 ± 0.088 |
| I30N | -0.397 ± 0.08 |
| I30P | -0.208 ± 0.076 |

| Variant | abundance fitness |
| --- | --- |
| I30Q | -0.215 ± 0.047 |
| I30R | -0.128 ± 0.038 |
| I30S | -0.279 ± 0.063 |
| I30T | -0.256 ± 0.078 |
| I30V | -0.064 ± 0.044 |
| I30W | -0.431 ± 0.072 |
| I30Y | -0.086 ± 0.1 |
| N31A | -0.188 ± 0.051 |
| N31C | -0.123 ± 0.077 |
| N31D | -0.28 ± 0.055 |
| N31E | -0.396 ± 0.069 |
| N31F | -0.784 ± 0.15 |
| N31G | 0.009 ± 0.04 |
| N31H | -0.069 ± 0.075 |
| N31I | -0.802 ± 0.16 |
| N31K | -0.265 ± 0.093 |
| N31L | -0.325 ± 0.041 |
| N31M | -0.444 ± 0.088 |
| N31P | -0.663 ± 0.071 |
| N31Q | -0.388 ± 0.12 |
| N31R | -0.201 ± 0.061 |
| N31S | -0.135 ± 0.064 |
| N31T | -0.134 ± 0.063 |
| N31V | -0.756 ± 0.055 |

| Variant | abundance fitness |
| --- | --- |
| N31W | -0.843 ± 0.13 |
| N31Y | -0.671 ± 0.085 |
| R32A | -0.249 ± 0.044 |
| R32C | -0.168 ± 0.07 |
| R32D | 0.067 ± 0.087 |
| R32E | 0.002 ± 0.055 |
| R32F | -0.431 ± 0.063 |
| R32G | -0.013 ± 0.039 |
| R32H | 0.125 ± 0.1 |
| R32I | -0.387 ± 0.11 |
| R32K | -0.061 ± 0.083 |
| R32L | -0.119 ± 0.055 |
| R32P | -0.564 ± 0.045 |
| R32S | -0.119 ± 0.041 |
| R32T | -0.607 ± 0.093 |
| R32V | -0.333 ± 0.042 |
| R32W | -0.519 ± 0.053 |
| K33A | -0.057 ± 0.048 |
| K33C | -0.074 ± 0.074 |
| K33D | -0.066 ± 0.1 |
| K33E | -0.488 ± 0.083 |
| K33F | -0.52 ± 0.15 |
| K33G | -0.414 ± 0.054 |
| K33H | -0.463 ± 0.14 |

| Variant | abundance fitness |
| --- | --- |
| K33I | -0.291 ± 0.083 |
| K33L | -0.028 ± 0.039 |
| K33M | -0.236 ± 0.081 |
| K33N | -0.169 ± 0.12 |
| K33P | -0.815 ± 0.13 |
| K33Q | -0.034 ± 0.046 |
| K33S | -0.222 ± 0.059 |
| K33T | -0.158 ± 0.066 |
| K33V | -0.028 ± 0.044 |
| K33W | -0.347 ± 0.051 |
| K33Y | -0.331 ± 0.09 |
| T34A | -0.413 ± 0.053 |
| T34C | 0.042 ± 0.074 |
| T34D | -0.414 ± 0.094 |
| T34E | -0.316 ± 0.083 |
| T34F | -0.387 ± 0.079 |
| T34G | -0.453 ± 0.061 |
| T34H | -0.407 ± 0.09 |
| T34I | -0.502 ± 0.076 |
| T34K | -0.219 ± 0.088 |
| T34L | -0.603 ± 0.079 |
| T34M | -0.265 ± 0.068 |
| T34N | -0.237 ± 0.083 |
| T34Q | -0.182 ± 0.072 |

| Variant | abundance fitness |
| --- | --- |
| T34R | -0.035 ± 0.05 |
| T34S | -0.11 ± 0.048 |
| T34V | -0.232 ± 0.045 |
| T34W | -0.193 ± 0.048 |
| T34Y | -0.324 ± 0.089 |
| Q35A | -0.26 ± 0.046 |
| Q35C | -0.338 ± 0.095 |
| Q35D | -0.597 ± 0.11 |
| Q35E | -0.373 ± 0.055 |
| Q35F | -0.68 ± 0.27 |
| Q35G | -0.487 ± 0.041 |
| Q35H | -0.588 ± 0.18 |
| Q35I | -0.571 ± 0.2 |
| Q35L | -0.423 ± 0.045 |
| Q35M | -0.18 ± 0.078 |
| Q35N | -0.516 ± 0.049 |
| Q35R | -0.334 ± 0.051 |
| Q35T | 0.009 ± 0.078 |
| Q35V | -0.188 ± 0.056 |
| Q35W | -0.48 ± 0.055 |
| Q35Y | -0.15 ± 0.15 |
| Y36A | -0.102 ± 0.067 |
| Y36C | -0.463 ± 0.08 |
| Y36D | -0.32 ± 0.069 |

| Variant | abundance fitness |
| --- | --- |
| Y36E | -0.172 ± 0.041 |
| Y36F | -0.308 ± 0.085 |
| Y36H | -0.093 ± 0.043 |
| Y36I | -0.185 ± 0.041 |
| Y36K | -0.058 ± 0.048 |
| Y36L | -0.048 ± 0.063 |
| Y36M | 0.096 ± 0.083 |
| Y36N | -0.176 ± 0.063 |
| Y36P | -0.161 ± 0.046 |
| Y36Q | -0.134 ± 0.049 |
| Y36R | 0.059 ± 0.051 |
| Y36S | -0.086 ± 0.059 |
| Y36T | -0.041 ± 0.078 |
| Y36V | -0.11 ± 0.059 |
| Y36W | -0.093 ± 0.06 |
| E37A | -0.192 ± 0.053 |
| E37C | -0.292 ± 0.051 |
| E37D | -0.151 ± 0.079 |
| E37F | -0.438 ± 0.054 |
| E37G | -0.213 ± 0.044 |
| E37H | -0.321 ± 0.11 |
| E37K | -0.282 ± 0.11 |
| E37L | -0.213 ± 0.049 |
| E37M | -0.296 ± 0.07 |

| Variant | abundance fitness |
| --- | --- |
| E37N | -0.005 ± 0.098 |
| E37P | -0.56 ± 0.087 |
| E37Q | -0.176 ± 0.071 |
| E37R | -0.401 ± 0.058 |
| E37S | -0.162 ± 0.042 |
| E37T | -0.177 ± 0.057 |
| E37V | -0.286 ± 0.048 |
| E37W | -0.47 ± 0.046 |
| E37Y | -0.611 ± 0.089 |
| N38A | -0.146 ± 0.059 |
| N38C | -0.747 ± 0.051 |
| N38D | -0.158 ± 0.064 |
| N38E | -0.254 ± 0.084 |
| N38F | -0.058 ± 0.062 |
| N38G | -0.45 ± 0.059 |
| N38H | 0.171 ± 0.057 |
| N38I | -0.61 ± 0.2 |
| N38K | -0.444 ± 0.1 |
| N38L | -0.271 ± 0.044 |
| N38M | -0.116 ± 0.064 |
| N38P | -0.481 ± 0.1 |
| N38Q | -0.387 ± 0.1 |
| N38R | -0.079 ± 0.04 |
